Results as given in EP3854411A1 (Rise Biopharmaceuticals, Inc. (Beijing), dated 2021).

Columns and labels:
[1] = target: T1, CXCR1 (UniProt P25024 1-350, limits assumed); assay: indirect ELISA, ONCO P8-CXCR1 complex formation
T1 construct: The receptor preparation used in the ELISA is not described; also called IL-8R
T1 sequence (looked up): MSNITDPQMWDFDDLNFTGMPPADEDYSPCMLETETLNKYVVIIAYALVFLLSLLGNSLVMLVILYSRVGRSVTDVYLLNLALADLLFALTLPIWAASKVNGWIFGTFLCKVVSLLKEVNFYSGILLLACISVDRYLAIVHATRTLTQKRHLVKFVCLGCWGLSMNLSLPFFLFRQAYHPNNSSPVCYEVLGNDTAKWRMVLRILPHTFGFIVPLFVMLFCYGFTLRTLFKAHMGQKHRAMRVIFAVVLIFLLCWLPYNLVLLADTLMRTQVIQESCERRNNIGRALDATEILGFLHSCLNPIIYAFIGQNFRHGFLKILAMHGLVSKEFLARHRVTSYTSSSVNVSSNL

[2] = target: T2, CXCR2 (UniProt P25025 1-360, limits assumed); assay: indirect ELISA, ONCO P8-CXCR2 complex formation
T2 construct: The receptor preparation used in the ELISA is not described; also called IL-8R
T2 sequence (looked up): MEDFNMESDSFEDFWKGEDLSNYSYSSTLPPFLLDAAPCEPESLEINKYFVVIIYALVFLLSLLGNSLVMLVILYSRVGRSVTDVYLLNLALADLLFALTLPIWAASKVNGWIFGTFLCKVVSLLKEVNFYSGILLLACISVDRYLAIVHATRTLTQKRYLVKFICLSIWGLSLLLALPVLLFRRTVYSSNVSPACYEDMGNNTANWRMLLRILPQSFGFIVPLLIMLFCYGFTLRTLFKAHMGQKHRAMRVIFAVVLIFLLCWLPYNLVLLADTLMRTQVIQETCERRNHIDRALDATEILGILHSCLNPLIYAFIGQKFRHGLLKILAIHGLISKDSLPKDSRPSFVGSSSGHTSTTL

- Kd [1]: 286 nM
- Kd [2]: 139 nM
B1: ONCO P-8 (peptide)
chain: GSKELRCQCIRSYSKPFHPKFIKELRVIPASQFCANTEIIVKLSDGRELCLDPKENWVQRVVEKFLKRAENS
notes: also called chemokine receptor antagonistic modified peptide
